The supplement of paper PMC10724198
± gives the standard deviation of the averaged measurements.

What was measured:
Saccharomyces cerevisiae [1] = test: protein stability index of tFT-peptide fusion (C-terminal peptide) (PSI (0-1 scale)); higher = more stable (slower turnover); conditions: genetic background: wild type; temperature: 30 C
Saccharomyces cerevisiae [2] = test: as above
Experimental: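 MPS profiling in S. cerevisiae of the tFT-X12 degron library: putative degron peptides plus stable controls, 12 aa, fused to the C-terminus of a sfGFP-mCherry timer. Cells are FACS-sorted into 8 mCherry/sfGFP bins and deep-sequenced. PSI runs from 0 (unstable) to 1 (stable). Backgrounds are wild type, das1Δ and doa10Δ at 30 °C, and wild type, das1Δ, cdc34-1 and cdc53-1 at 37 °C; 2-3 technical replicates each.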

[3] = genetic background: cdc34-1, temperature: 37 C
[4] = genetic background: cdc53-1, temperature: 37 C
[5] = genetic background: das1 deletion, temperature: 30 C
[6] = genetic background: das1 deletion, temperature: 37 C
[7] = genetic background: doa10 deletion, temperature: 30 C
[8] = genetic background: wild type, temperature: 30 C
[9] = genetic background: wild type, temperature: 37 C
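Also: PSI is a weighted mean of sequencing reads over stability bins, variants kept only with over 10 reads, mCherry proximal and sfGFP distal, peptide attached via GGGS linker.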

Sequence | protein stability index (Saccharomyces cerevisiae [1]) | protein stability index (Saccharomyces cerevisiae [2]; [3]) | protein stability index (Saccharomyces cerevisiae [2]; [4]) | protein stability index (Saccharomyces cerevisiae [2]; [5]) | protein stability index (Saccharomyces cerevisiae [2]; [6]) | protein stability index (Saccharomyces cerevisiae [2]; [7]) | protein stability index (Saccharomyces cerevisiae [2]; [8]) | protein stability index (Saccharomyces cerevisiae [2]; [9])
VFFLLSVYMVMM | 0.307 ± 0.065 | 0.145 ± 0.018 | 0.29 ± 0.075 | 0.195 ± 0.055 | 0.3338 ± 0.0028 | 0.182 ± 0.03 | 0.184 ± 0.015 | 0.32 ± 0.02
IVRLGRWLGLSC | 0.352 ± 0.052 | 0.657 ± 0.032 | 0.691 ± 0.025 | 0.613 ± 0.055 | 0.709 ± 0.013 | 0.215 ± 0.031 | 0.261 ± 0.028 | 0.494 ± 0.028
LIICRSFLCKVR | 0.3 ± 0.01 | 0.236 ± 0.026 | 0.2557 ± 0.0016 | 0.193 ± 0.029 | 0.369 ± 0.0059 | 0.16 ± 0.0049 | 0.174 ± 0.023 | 0.317 ± 0.0052
RWRLWGGWWVVG | – | 0.601 ± 0.028 | 0.727 ± 0.012 | 0.579 ± 0.022 | 0.718 ± 0.017 | 0.191 ± 0.019 | 0.196 ± 0.022 | 0.419 ± 0.015
TSPYTSFAHTSL | 0.69 ± 0.022 | 0.694 ± 0.029 | 0.739 ± 0.016 | 0.677 ± 0.031 | 0.739 ± 0.0074 | 0.662 ± 0.017 | 0.6569 ± 0.006 | 0.71286 ± 0.00012
LGALFGRFWWYF | 0.42 ± 0.027 | 0.664 ± 0.024 | 0.7416 ± 0.0074 | 0.654 ± 0.01 | 0.795 ± 0.013 | 0.278 ± 0.012 | 0.291 ± 0.023 | 0.541 ± 0.016
WFSMSRLWVFYS | 0.217 ± 0.082 | 0.415 ± 0.043 | 0.637 ± 0.018 | 0.619 ± 0.028 | 0.729 ± 0.045 | 0.1047 ± 0.00079 | 0.0847 ± 0.027 | 0.106 ± 0.024
FCSFSWFLFLRS | 0.405 ± 0.034 | 0.211 ± 0.0051 | 0.123 ± 0.023 | 0.329 ± 0.02 | 0.359 ± 0.0085 | 0.599 ± 0.01 | 0.337 ± 0.016 | 0.312 ± 0.022
VGSSSGRLLYLC | 0.481 ± 0.0082 | 0.595 ± 0.007 | 0.73 ± 0.0093 | 0.633 ± 0.0066 | 0.7466 ± 0.0065 | 0.2656 ± 0.002 | 0.302 ± 0.022 | 0.43 ± 0.0049
VVVFGWIGYLYL | 0.327 ± 0.071 | 0.366 ± 0.028 | 0.499 ± 0.05 | 0.311 ± 0.044 | 0.511 ± 0.021 | 0.282 ± 0.019 | 0.288 ± 0.044 | 0.482 ± 0.062
FLLPILSSSPVL | 0.727 ± 0.035 | 0.692 ± 0.063 | 0.742 ± 0.019 | 0.657 ± 0.011 | 0.735 ± 0.012 | 0.685 ± 0.019 | 0.667 ± 0.025 | 0.6913 ± 0.0023
YFLFLRLVFLFF | 0.23 ± 0.032 | 0.217 ± 0.015 | 0.222 ± 0.032 | 0.233 ± 0.018 | 0.3874 ± 0.0034 | 0.186 ± 0.013 | 0.178 ± 0.018 | 0.257 ± 0.0034
RDPLAPLLLAIP | 0.698 ± 0.01 | 0.65 ± 0.038 | 0.717 ± 0.015 | 0.587 ± 0.011 | 0.7006 ± 0.0047 | 0.596 ± 0.04 | 0.609 ± 0.013 | 0.6816 ± 0.0035
LPLLLFYLPIIW | 0.464 ± 0.03 | 0.4647 ± 0.0038 | 0.479 ± 0.0079 | 0.401 ± 0.034 | 0.521 ± 0.0097 | 0.414 ± 0.0077 | 0.389 ± 0.034 | 0.4796 ± 0.0041
LGCLVWGGVWGV | 0.479 ± 0.019 | 0.706 ± 0.04 | 0.7595 ± 0.00079 | 0.625 ± 0.0078 | 0.737 ± 0.025 | 0.628 ± 0.021 | 0.638 ± 0.016 | 0.727 ± 0.041
WCFGSLLIRFSL | 0.458 ± 0.024 | 0.416 ± 0.057 | 0.446 ± 0.016 | 0.453 ± 0.04 | 0.5548 ± 0.0037 | 0.5049 ± 0.00066 | 0.411 ± 0.0096 | 0.516 ± 0.013
CFPFYVSCLLVL | 0.321 ± 0.027 | 0.3061 ± 0.0023 | 0.311 ± 0.0064 | 0.281 ± 0.029 | 0.405 ± 0.019 | 0.25 ± 0.0066 | 0.256 ± 0.02 | 0.351 ± 0.0055
HSRALLPYLSYH | 0.518 ± 0.029 | 0.684 ± 0.04 | 0.753 ± 0.016 | 0.651 ± 0.021 | 0.7732 ± 0.007 | 0.408 ± 0.013 | 0.388 ± 0.021 | 0.558 ± 0.012
LDLSSVFILYFN | 0.374 ± 0.022 | 0.599 ± 0.041 | 0.6735 ± 0.0021 | 0.518 ± 0.0058 | 0.709 ± 0.048 | 0.2653 ± 0.0025 | 0.28 ± 0.028 | 0.54398 ± 0.00036
VFFTSLPPLLRA | 0.458 ± 0.0096 | 0.433 ± 0.015 | 0.4543 ± 0.0034 | 0.372 ± 0.021 | 0.51 ± 0.01 | 0.341 ± 0.006 | 0.37 ± 0.032 | 0.486 ± 0.013
GILILRLILCLF | 0.227 ± 0.0044 | 0.251 ± 0.027 | 0.302 ± 0.047 | 0.248 ± 0.033 | 0.385 ± 0.023 | 0.171 ± 0.0058 | 0.189 ± 0.018 | 0.24 ± 0.012
SIPFWPVLFFLL | 0.14 ± 0.033 | 0.353 ± 0.021 | 0.475 ± 0.014 | 0.494 ± 0.018 | 0.6088 ± 0.0044 | 0.0877 ± 0.011 | 0.091 ± 0.011 | 0.0952 ± 0.0057
LPHPLPFCFSLY | 0.515 ± 0.062 | 0.711 ± 0.024 | 0.7672 ± 0.0058 | 0.672 ± 0.0085 | 0.7781 ± 0.0021 | 0.4271 ± 0.0037 | 0.451 ± 0.025 | 0.6683 ± 0.0063
GCLFMQVSLFWR | 0.286 ± 0.028 | 0.0959 ± 0.027 | 0.164 ± 0.018 | 0.147 ± 0.038 | 0.295 ± 0.023 | 0.177 ± 0.0049 | 0.138 ± 0.044 | 0.26 ± 0.017
CPPPPPSLLLLC | 0.223 ± 0.0038 | 0.531 ± 0.025 | 0.6762 ± 0.0035 | 0.591 ± 0.012 | 0.666 ± 0.011 | 0.168 ± 0.0086 | 0.19 ± 0.013 | 0.29753 ± 0.00015
ECLRLTTKKKIN | 0.173 ± 0.011 | 0.581 ± 0.079 | 0.733 ± 0.069 | 0.657 ± 0.055 | 0.704 ± 0.032 | 0.133 ± 0.0031 | 0.146 ± 0.039 | 0.197 ± 0.088
SVVFFYPPIFHA | 0.437 ± 0.044 | 0.636 ± 0.057 | 0.7392 ± 0.006 | 0.678 ± 0.053 | 0.713 ± 0.016 | 0.28 ± 0.0055 | 0.326 ± 0.027 | 0.549 ± 0.011
PPTRVPVTLFLV | 0.153 ± 0.013 | 0.395 ± 0.013 | 0.673 ± 0.017 | 0.619 ± 0.0097 | 0.6761 ± 0.0013 | 0.0767 ± 0.022 | 0.0832 ± 0.011 | 0.09 ± 0.0034
ICFFQGVVVLFR | 0.407 ± 0.0077 | 0.353 ± 0.033 | 0.403 ± 0.005 | 0.312 ± 0.026 | 0.48 ± 0.014 | 0.3653 ± 0.0027 | 0.303 ± 0.044 | 0.4521 ± 0.0013
WVFVVWFVFVVG | 0.322 ± 0.016 | 0.242 ± 0.022 | 0.3112 ± 0.00051 | 0.241 ± 0.022 | 0.374 ± 0.021 | 0.202 ± 0.013 | 0.215 ± 0.02 | 0.356 ± 0.03
